These results are taken from PMC7954794, “Protein context shapes the specificity of SH3 domain-mediated interactions in vivo” (Nature Communications, 2021).

Holding throughout (assay type): cell-based, Saccharomyces cerevisiae
One assay deals with BUD14. In words: DHFR-PCA on solid medium, bait BUD14 (Fig. 1B). The settings on record: bait BUD14, label = prey; 4 replicates. From the text:
(§1) Supplement 41467_2021_21873_MOESM8_ESM.xlsx, sheet "Fig1B" | column: medsize; medrep; Ratio; Score

The next assay concerns BOI2. In words: DHFR-PCA on solid medium, bait BOI2 (Fig. 1B). The settings on record: bait BOI2, label = prey; 3-8 replicates.
Excerpt: as §1

A further assay has as its system BBC1. In words: DHFR-PCA on solid medium, bait BBC1 (Fig. 1B). The settings on record: bait BBC1, label = prey; for medrep (log2 median colony size normalized to plate background, PCA score): 2-4 replicates; for Ratio (SH3-deleted/WT medrep): only significant differences showed, PPIs completely lost have a ratio of 0.1 and the gained PPIs 2.5.
Excerpt: as §1

The subject of a further assay is BOI1. As to the kind of experiment: DHFR-PCA on solid medium, bait BOI1 (Fig. 1B). The settings on record: bait BOI1, label = prey; for medrep (log2 median colony size normalized to plate background, PCA score): 3-8 replicates; for Ratio (SH3-deleted/WT medrep): only significant differences showed, PPIs completely lost have a ratio of 0.1 and the gained PPIs 2.5.
Excerpt: as §1

In a further assay the test system is BEM1-2. In words: DHFR-PCA on solid medium, bait BEM1-2 (Fig. 1B). The settings on record: bait BEM1-2, label = prey; for medrep (log2 median colony size normalized to plate background, PCA score): 2-8 replicates; for Ratio (SH3-deleted/WT medrep): only significant differences showed, PPIs completely lost have a ratio of 0.1 and the gained PPIs 2.5.
Excerpt: as §1

For a further assay, the system named is ABP1. As to the kind of experiment: DHFR-PCA on solid medium, bait ABP1 (Fig. 1B). The settings on record: bait ABP1, label = prey.
Excerpt: as §1

Another assay relates to BEM1-1. In words: DHFR-PCA on solid medium, bait BEM1-1 (Fig. 1B). The settings on record: bait BEM1-1, label = prey; 2-8 replicates.
Excerpt: as §1

B1: YGR238C (protein, UniProt P50090 1-882, looked up)
Kelch repeat-containing …: MVPFKLTNKVPTDTGPSLISAQSVPRPIVFMDNRNNTRIVTPTLPPNQHRGISGASTALPWSPESKNTGKYIWNRVKLKNSPFPRYRHSSSFIVTNDNRIFVTGGLHDQSVYGDVWQIAANADGTSFTSKRIDIDQNTPPPRVGHASTICGNAYVVFGGDTHKLNKNGLLDDDLYLFNINSYKWTIPQPIGRRPLGRYGHKISIIASNPMQTKLYLFGGQVDETYFNDLVVFDLSSFRRPNSHWEFLEPVGDLPPPLTNHTMVAYDNKLWVFGGETPKTISNDTYRYDPAQSEWSKVKTTGEKPPPIQEHASVVYKHLMCVLGGKDTHNAYSNDVYFLNLLSLKWYKLPRMKEGIPQERSGHSLTLMKNEKLLIMGGDKTDYASPNIHDLQTSETDQGEGTLLYTLDLSSLNELCPGIMCESLHAGESFSNSLSGGFTPSKSTESENQEIINILTPRLPDSKVLSYNDIDEGAGSYSSALDDKAFERKSDREEKKPQSSKVDSSINKESPGTGIKVSKKNFPVLRGLTVDSEEYGSSSYKDTSCQKGIPKNLFDDLNLNLQTLRLEAQQKELETARHISQLEKEVQRLMVIKEASKDSNFQTARLKNLEIQKTFLESRINDLKNLLMVKLSQASKLCDQITIQNNGLKTCSEHVTIKRDIIDLENKCDVLKRQNEILVNNMQKITPELHTYLNESSCYLGKLLKSYPTSARPPSSEKDNQIYEKDSLNKIEKVINEMHETVRAKEKLHLETQKLNDERDSLRANLLDNNNKLDALRKLSDGSSKSMDLTKKAIHLSQSELEKYRKNNDDLQKEIDRIKTEQAEQDDKQEQRGAITHGNFDAFHRMKINNLKAELYMSKENRDSLKDELLALKKKLYTLEQKK
Regarding B1, in the assay on BUD14, the “medrep (log2 median colony size normalized to plate background, PCA score)” value came to 3.527.

B2: YML016C (protein, UniProt P26570 2-692, looked up)
Serine/threonine-protein …: GNSSSKSSKKDSHSNSSSRNPRPQVSRTETSHSVKSAKSNKSSRSRRSLPSSSTTNTNSNVPDPSTPSKPNLEVNHQRHSSHTNRYHFPSSSHSHSNSQNELLTTPSSSSTKRPSTSRRSSYNTKAAADLPPSMIQMEPKSPILKTNNSSTHVSKHKSSYSSTYYENALTDDDNDDKDNDISHTKRFSRSSNSRPSSIRSGSVSRRKSDVTHEEPNNGSYSSNNQENYLVQALTRSNSHASSLHSRKSSFGSDGNTAYSTPLNSPGLSKLTDHSGEYFTSNSTSSLNHHSSRDIYPSKHISNDDDIENSSQLSNIHASMENVNDKNNNITDSKKDPNEEFNDIMQSSGNKNAPKKFKKPIDIDETIQKLLDAGYAAKRTKNVCLKNNEILQICIKAREIFLSQPSLLELSPPVKIVGDVHGQYGDLLRLFTKCGFPPSSNYLFLGDYVDRGKQSLETILLLFCYKIKYPENFFLLRGNHECANVTRVYGFYDECKRRCNIKIWKTFIDTFNTLPLAAIVAGKIFCVHGGLSPVLNSMDEIRHVVRPTDVPDFGLINDLLWSDPTDSPNEWEDNERGVSYCYNKVAINKFLNKFGFDLVCRAHMVVEDGYEFFNDRSLVTVFSAPNYCGEFDNWGAVMSVSEGLLCSFELLDPLDSAALKQVMKKGRQERKLANQQQQMMETSITNDNESQQ
Turning to B2, the “medrep (log2 median colony size normalized to plate background, PCA score)” value in the assay with BOI2 is 2.013; in the assay on BBC1, 1.933; with BOI1, 1.566; with BEM1-2, 2.424; in the assay with ABP1 (2-4 replicates), 2.329; in the assay on BEM1-1, 2.424. Moreover, the “Ratio (SH3-deleted/WT medrep)” value in the assay on BBC1 was 0.1; in the assay on BOI1, 2.5; in the assay with BEM1-2, 0.1; in the assay on ABP1 (only significant differences showed, PPIs completely lost have a ratio of 0.1 and the gained PPIs 2.5), 1.5236.

B3: YGR281W (protein, UniProt P53049 1-1477, looked up)
Oligomycin resistance …: MTITVGDAVSETELENKSQNVVLSPKASASSDISTDVDKDTSSSWDDKSLLPTGEYIVDRNKPQTYLNSDDIEKVTESDIFPQKRLFSFLHSKKIPEVPQTDDERKIYPLFHTNIISNMFFWWVLPILRVGYKRTIQPNDLFKMDPRMSIETLYDDFEKNMIYYFEKTRKKYRKRHPEATEEEVMENAKLPKHTVLRALLFTFKKQYFMSIVFAILANCTSGFNPMITKRLIEFVEEKAIFHSMHVNKGIGYAIGACLMMFVNGLTFNHFFHTSQLTGVQAKSILTKAAMKKMFNASNYARHCFPNGKVTSFVTTDLARIEFALSFQPFLAGFPAILAICIVLLIVNLGPIALVGIGIFFGGFFISLFAFKLILGFRIAANIFTDARVTMMREVLNNIKMIKYYTWEDAYEKNIQDIRTKEISKVRKMQLSRNFLIAMAMSLPSIASLVTFLAMYKVNKGGRQPGNIFASLSLFQVLSLQMFFLPIAIGTGIDMIIGLGRLQSLLEAPEDDPNQMIEMKPSPGFDPKLALKMTHCSFEWEDYELNDAIEEAKGEAKDEGKKNKKKRKDTWGKPSASTNKAKRLDNMLKDRDGPEDLEKTSFRGFKDLNFDIKKGEFIMITGPIGTGKSSLLNAMAGSMRKTDGKVEVNGDLLMCGYPWIQNASVRDNIIFGSPFNKEKYDEVVRVCSLKADLDILPAGDMTEIGERGITLSGGQKARINLARSVYKKKDIYLFDDVLSAVDSRVGKHIMDECLTGMLANKTRILATHQLSLIERASRVIVLGTDGQVDIGTVDELKARNQTLINLLQFSSQNSEKEDEEQEAVVAGELGQLKYESEVKELTELKKKATEMSQTANSGKIVADGHTSSKEERAVNSISLKIYREYIKAAVGKWGFIALPLYAILVVGTTFCSLFSSVWLSYWTENKFKNRPPSFYMGLYSFFVFAAFIFMNGQFTILCAMGIMASKWLNLRAVKRILHTPMSYIDTTPLGRILNRFTKDTDSLDNELTESLRLMTSQFANIVGVCVMCIVYLPWFAIAIPFLLVIFVLIADHYQSSGREIKRLEAVQRSFVYNNLNEVLGGMDTIKAYRSQERFLAKSDFLINKMNEAGYLVVVLQRWVGIFLDMVAIAFALIITLLCVTRAFPISAASVGVLLTYVLQLPGLLNTILRAMTQTENDMNSAERLVTYATELPLEASYRKPEMTPPESWPSMGEIIFENVDFAYRPGLPIVLKNLNLNIKSGEKIGICGRTGAGKSTIMSALYRLNELTAGKILIDNVDISQLGLFDLRRKLAIIPQDPVLFRGTIRKNLDPFNERTDDELWDALVRGGAIAKDDLPEVKLQKPDENGTHGKMHKFHLDQAVEEEGSNFSLGERQLLALTRALVRQSKILILDEATSSVDYETDGKIQTRIVEEFGDCTILCIAHRLKTIVNYDRILVLEKGEVAEFDTPWTLFSQEDSIFRSMCSRSGIVENDFENRS
In the case of B3, the “medrep (log2 median colony size normalized to plate background, PCA score)” value with BOI2 is recorded as 2.696; in the assay on BBC1, 1.516; with BOI1, 1.486; with BEM1-2 it was 2.579; with BEM1-1, 2.579. Besides, the results for the “Ratio (SH3-deleted/WT medrep)” value with BBC1, with BOI1 and in the assay on BEM1-2 were 0.4155, 2.5 and 0.1, respectively.
